Data reported in patent US20040043378.

Target: T1, wild type HIV-1 Tat protein, FLAG-tagged, expressed in cells
T1 chain: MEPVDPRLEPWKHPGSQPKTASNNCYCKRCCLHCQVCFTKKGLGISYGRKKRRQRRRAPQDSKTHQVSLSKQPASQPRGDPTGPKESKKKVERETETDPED

B1: P/CAF (p300/CBP-associated factor), HA-tagged, expressed in cells (protein)
chain: MSEAGGAGPGGCGAGAGAGAGPGALPPQPAALPPAPPQGSPCAAAAGGSGACGPATAVAAAGTAEGPGGGGSARIAVKKAQLRSAPRAKKLEKLGVYSACKAEESCKCNGWKNPNPSPTPPRADLQQIIVSLTESCRSCSHALAAHVSHLENVSEEEMNRLLGIVLDVEYLFTCVHKEEDADTKQVYFYLFKLLRKSILQRGKPVVEGSLEKKPPFEKPSIEQGVNNFVQYKFSHLPAKERQTIVELAKMFLNRINYWHLEAPSQRRLRSPNDDISGYKENYTRWLCYCNVPQFCDSLPRYETTQVFGRTLLRSVFTVMRRQLLEQARQEKDKLPLEKRTLILTHFPKFLSMLEEEVYSQNSPIWDQDFLSASSRTSQLGIQTVINPPPVAGTISYNSTSSSLEQPNAGSSSPACKASSGLEANPGEKRKMTDSHVLEEAKKPRVMGDIPMELINEVMSTITDPAAMLGPETNFLSAHSARDEAARLEERRGVIEFHVVGNSLNQKPNKKILMWLVGLQNVFSHQLPRMPKEYITRLVFDPKHKTLALIKDGRVIGGICFRMFPSQGFTEIVFCAVTSNEQVKGYGTHLMNHLKEYHIKHDILNFLTYADEYAIGYFKKQGFSKEIKIPKTKYVGYIKDYEGATLMGCELNPRIPYTEFSVIIKKQKEIIKKLIERKQAQIRKVYPGLSCFKDGVRQIPIESIPGIRETGWKPSGKEKSKEPRDPDQLYSTLKSILQQVKSHQSAWPFMEPVKRTEAPGYYEVIRFPMDLKTMSERLKNRYYVSKKLFMADLQRVFTNCKEYNAAESEYYKCANILEKFFFSKIKEAGLIDK
Question: With B1 as the protein, how does the “Superinduction of Tat transactivation activity” value read?
Answer: as much as a 30-fold increase upon P/CAF stimulation
